Assay results from patent US20100226910.

Target: Synthetic human amyloid protein Aβ1-42 or Aβ1-40 (UniProt P05067)
Sequence (P05067 whole entry, looked up, tested part not stated): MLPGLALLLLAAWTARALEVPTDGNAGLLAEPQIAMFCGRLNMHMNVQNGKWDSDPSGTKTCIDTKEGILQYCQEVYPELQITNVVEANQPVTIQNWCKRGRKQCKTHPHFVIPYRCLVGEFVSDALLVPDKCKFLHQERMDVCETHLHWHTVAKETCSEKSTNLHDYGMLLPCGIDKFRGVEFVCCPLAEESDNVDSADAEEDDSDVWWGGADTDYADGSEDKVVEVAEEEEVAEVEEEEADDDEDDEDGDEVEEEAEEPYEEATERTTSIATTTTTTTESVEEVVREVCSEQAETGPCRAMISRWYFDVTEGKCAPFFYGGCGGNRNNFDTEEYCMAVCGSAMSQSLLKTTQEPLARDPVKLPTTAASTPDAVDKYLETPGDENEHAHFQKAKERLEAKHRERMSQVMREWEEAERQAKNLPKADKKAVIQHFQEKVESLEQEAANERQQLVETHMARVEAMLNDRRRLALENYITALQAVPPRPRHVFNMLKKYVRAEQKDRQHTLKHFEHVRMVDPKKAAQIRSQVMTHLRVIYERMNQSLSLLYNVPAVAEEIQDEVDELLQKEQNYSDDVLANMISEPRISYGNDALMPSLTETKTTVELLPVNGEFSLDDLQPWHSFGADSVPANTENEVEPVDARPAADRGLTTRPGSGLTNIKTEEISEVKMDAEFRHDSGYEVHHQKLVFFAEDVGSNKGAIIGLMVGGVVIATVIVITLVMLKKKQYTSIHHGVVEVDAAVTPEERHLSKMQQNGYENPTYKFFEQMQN

## KLK1 (Sigma)
  cleavage of amyloid fibrils in vitro, mass spectra after digestion: KLK1 cleaves amyloid fibrils (FIG. 1); in panel C, there is a clear peak at about 2423 M/Z (mass to charge ration), which is an indication of cleavage
  cleavage of soluble amyloid in vitro, mass spectra after digestion: In panel B, there are no visible peaks when KLK1 was added to soluble amyloid. This indicates that KLK1 cleaved the soluble amyloid into smaller fragments
